Results on two sequences are retold here after paper PMC11051896.

In the series the test system is T1, CcpA (Lactococcus lactis N8), ORF:ea67f8fe.
T1 sequence: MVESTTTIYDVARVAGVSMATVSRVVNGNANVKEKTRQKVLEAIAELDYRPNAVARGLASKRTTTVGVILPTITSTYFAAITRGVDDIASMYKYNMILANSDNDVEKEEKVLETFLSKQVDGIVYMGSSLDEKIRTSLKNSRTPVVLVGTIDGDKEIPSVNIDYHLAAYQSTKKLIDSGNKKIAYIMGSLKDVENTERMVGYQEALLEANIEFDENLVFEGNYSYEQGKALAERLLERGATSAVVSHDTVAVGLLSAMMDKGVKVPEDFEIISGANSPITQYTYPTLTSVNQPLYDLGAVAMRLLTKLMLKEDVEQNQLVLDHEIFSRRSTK
Nature of the series: MST. The conditions noted are these: MST: Cy5-DNA 375 nM stock (10 uL per tube), CcpA from 15 uM in 16 two-fold dilutions; assay buffer, salt, pH and temperature not stated (protein purified in …).

The Kd is the concentration at which binding is half-saturated. In the case of “AGCCAGTGGCGATAAGTACGATAAAATATTTAAAAGTCTATATATACCAAGGAAGAAAACGCTTTAAATTTTTGTAAATTATTAGAAATAATGATAG (double strand) [N8-1-cre]”, the Kd came to 44 nM.
For the sequence “AGCCAGTGGCGATAAGTACGATAAAATATTTAAAAGTCTATATATACCAAGGAAGAAAACTCTTTAAATTTTTGTAAATTATTAGAAATAATGATAG (double strand) [N8-2-cre]”, the binding entry was “no binding”.
